Reference: patent publication US7910330

Biological target: native Pf AMA-1 on P. falciparum parasites (strain not specified) (Plasmodium falciparum)
Test: cell-based or functional assay

inhibition of invasion: 50 to 60%
Substance: rat monoclonal antibody 4G2
